B1: MdhBs (NAD+-dependent methanol dehydrogenase) (Geobacillus stearothermophilus) (protein)
chain: MKAAVVNEFKKALEIKEVERPKLEEGEVLVKIEACGVCHTDLHAAHGDWPIKPKLPLIPGHEGVGIVVEVAKGVKSIKVGDRVGIPWLYSACGECEYCLTGQETLCPHQLNGGYSVDGGYAEYCKAPADYVAKIPDNLDPVEVAPILCAGVTTYKALKVSGARPGEWVAIYGIGGLGHIALQYAKAMGLNVVAVDISDEKSKLAKDLGADIAINGLKEDPVKAIHDQVGGVHAAISVAVNKKAFEQAYQSVKRGGTLVVVGLPNADLPIPIFDTVLNGVSVKGSIVGTRKDMQEALDFAARGKVRPIVETAELEEINEVFERMEKGKINGRIVLKLKED
B2: MdhBs (NAD+-dependent methanol dehydrogenase) (Geobacillus stearothermophilus; E309K/N214D) (protein)
chain: MKAAVVNEFKKALEIKEVERPKLEEGEVLVKIEACGVCHTDLHAAHGDWPIKPKLPLIPGHEGVGIVVEVAKGVKSIKVGDRVGIPWLYSACGECEYCLTGQETLCPHQLNGGYSVDGGYAEYCKAPADYVAKIPDNLDPVEVAPILCAGVTTYKALKVSGARPGEWVAIYGIGGLGHIALQYAKAMGLNVVAVDISDEKSKLAKDLGADIAIDGLKEDPVKAIHDQVGGVHAAISVAVNKKAFEQAYQSVKRGGTLVVVGLPNADLPIPIFDTVLNGVSVKGSIVGTRKDMQEALDFAARGKVRPIVKTAELEEINEVFERMEKGKINGRIVLKLKED
B3: MdhBs (NAD+-dependent methanol dehydrogenase) (Geobacillus stearothermophilus; K72T/T153P) (protein)
chain: MKAAVVNEFKKALEIKEVERPKLEEGEVLVKIEACGVCHTDLHAAHGDWPIKPKLPLIPGHEGVGIVVEVATGVKSIKVGDRVGIPWLYSACGECEYCLTGQETLCPHQLNGGYSVDGGYAEYCKAPADYVAKIPDNLDPVEVAPILCAGVTPYKALKVSGARPGEWVAIYGIGGLGHIALQYAKAMGLNVVAVDISDEKSKLAKDLGADIAINGLKEDPVKAIHDQVGGVHAAISVAVNKKAFEQAYQSVKRGGTLVVVGLPNADLPIPIFDTVLNGVSVKGSIVGTRKDMQEALDFAARGKVRPIVETAELEEINEVFERMEKGKINGRIVLKLKED

Each protein was assayed on CO (assay: purified protein). Details: NAD+ 0.5 mM, Mg2+ 5 mM, PBS pH 7.4, 37 °C.
Format: biochemical, Geobacillus stearothermophilus
With B1 the Km was 30.03 ± 4.63 mM, the Vmax was 0.0115 µmol/min/mg and the kcat was 0.007 ± 0.001 s⁻¹. The kcat/Km was 0.233 M⁻¹ s⁻¹. Work on B2 yielded a Km of 18.19 ± 3.27 mM, a Vmax of 0.0238 µmol/min/mg and a kcat of 0.013 ± 0.001 s⁻¹. The kcat/Km was 0.715 M⁻¹ s⁻¹. B3 gave a Km of 9.84 ± 0.67 mM, a Vmax of 0.0288 µmol/min/mg and a kcat of 0.015 ± 0.001 s⁻¹. The kcat/Km was 1.52 M⁻¹ s⁻¹.

— paper PMC10277290
